B1: Cell division control protein 6 homolog (Homo sapiens), Q99741 (parent)
chain: MPQTRSQAQATISFPKRKLSRALNKAKNSSDAKLEPTNVQTVTCSPRVKALPLSPRKRLGDDNLCNTPHLPPCSPPKQGKKENGPPHSHTLKGRRLVFDNQLTIKSPSKRELAKVHQNKILSSVRKSQEITTNSEQRCPLKKESACVRLFKQEGTCYQQAKLVLNTAVPDRLPAREREMDVIRNFLREHICGKKAGSLYLSGAPGTGKTACLSRILQDLKKELKGFKTIMLNCMSLRTAQAVFPAIAQEICQEEVSRPAGKDMMRKLEKHMTAEKGPMIVLVLDEMDQLDSKGQDVLYTLFEWPWLSNSHLVLIGIANTLDLTDRILPRLQAREKCKPQLLNFPPYTRNQIVTILQDRLNQVSRDQVLDNAAVQFCARKVSAVSGDVRKALDVCRRAIEIVESDVKSQTILKPLSECKSPSEPLIPKRVGLIHISQVISEVDGNRMTLSQEGAQDSFPLQQKILVCSLMLLIRQLKIKEVTLGKLYEAYSKVCRKQQVAAVDQSECLSLSGLLEARGILGLKRNKETRLTKVFFKIEEKEIEHALKDKALIGNILATGLP

Variants of: B1
Conditions: with cdk1_human CDK1, P06493
Sequence of cdk1_human CDK1, P06493 (P06493 whole entry, looked up): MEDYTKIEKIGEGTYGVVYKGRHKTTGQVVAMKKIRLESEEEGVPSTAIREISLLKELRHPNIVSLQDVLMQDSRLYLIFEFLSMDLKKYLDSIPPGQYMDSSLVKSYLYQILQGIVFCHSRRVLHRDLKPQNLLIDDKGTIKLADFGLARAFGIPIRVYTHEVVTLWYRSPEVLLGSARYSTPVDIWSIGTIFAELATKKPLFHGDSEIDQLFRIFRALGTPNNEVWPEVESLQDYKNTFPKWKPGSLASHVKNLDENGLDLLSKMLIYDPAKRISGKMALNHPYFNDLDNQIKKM

effect of a mutation on the interaction	Variant
disrupting interaction	MPQTRSQAQATISFPKRKLSRALNKAKNSSDAKLEPVNVQTVTCSPRVKALPLSPRKRLGDDNLCNTPHLPPCSPPKQGKKENGPPHSHTLKGRRLVFDNQLTIKSPSKRELAKVHQNKILSSVRKSQEITTNSEQRCPLKKESACVRLFKQEGTCYQQAKLVLNTAVPDRLPAREREMDVIRNFLREHICGKKAGSLYLSGAPGTGKTACLSRILQDLKKELKGFKTIMLNCMSLRTAQAVFPAIAQEICQEEVSRPAGKDMMRKLEKHMTAEKGPMIVLVLDEMDQLDSKGQDVLYTLFEWPWLSNSHLVLIGIANTLDLTDRILPRLQAREKCKPQLLNFPPYTRNQIVTILQDRLNQVSRDQVLDNAAVQFCARKVSAVSGDVRKALDVCRRAIEIVESDVKSQTILKPLSECKSPSEPLIPKRVGLIHISQVISEVDGNRMTLSQEGAQDSFPLQQKILVCSLMLLIRQLKIKEVTLGKLYEAYSKVCRKQQVAAVDQSECLSLSGLLEARGILGLKRNKETRLTKVFFKIEEKEIEHALKDKALIGNILATGLP [T37V]

Variants of: B1
Conditions: with plk1_human PLK1, P53350
Sequence of plk1_human PLK1, P53350 (P53350 whole entry): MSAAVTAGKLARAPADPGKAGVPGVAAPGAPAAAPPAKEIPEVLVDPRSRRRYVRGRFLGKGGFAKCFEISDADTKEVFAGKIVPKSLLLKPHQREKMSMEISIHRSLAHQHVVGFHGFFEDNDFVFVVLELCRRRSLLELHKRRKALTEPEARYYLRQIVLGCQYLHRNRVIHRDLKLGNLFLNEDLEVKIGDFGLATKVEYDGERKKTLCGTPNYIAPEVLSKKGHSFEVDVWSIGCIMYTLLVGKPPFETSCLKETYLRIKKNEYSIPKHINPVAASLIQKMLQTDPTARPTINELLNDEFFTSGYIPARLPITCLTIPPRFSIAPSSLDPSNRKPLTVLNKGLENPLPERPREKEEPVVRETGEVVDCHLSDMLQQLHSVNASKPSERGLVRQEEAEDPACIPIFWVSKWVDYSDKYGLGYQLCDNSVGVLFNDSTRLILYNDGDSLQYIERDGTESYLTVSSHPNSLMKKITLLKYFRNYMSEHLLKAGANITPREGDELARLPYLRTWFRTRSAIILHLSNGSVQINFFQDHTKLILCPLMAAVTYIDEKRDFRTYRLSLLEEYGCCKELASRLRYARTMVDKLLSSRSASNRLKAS

effect of a mutation on the interaction	Variant
disrupting interaction	MPQTRSQAQATISFPKRKLSRALNKAKNSSDAKLEPVNVQTVTCSPRVKALPLSPRKRLGDDNLCNTPHLPPCSPPKQGKKENGPPHSHTLKGRRLVFDNQLTIKSPSKRELAKVHQNKILSSVRKSQEITTNSEQRCPLKKESACVRLFKQEGTCYQQAKLVLNTAVPDRLPAREREMDVIRNFLREHICGKKAGSLYLSGAPGTGKTACLSRILQDLKKELKGFKTIMLNCMSLRTAQAVFPAIAQEICQEEVSRPAGKDMMRKLEKHMTAEKGPMIVLVLDEMDQLDSKGQDVLYTLFEWPWLSNSHLVLIGIANTLDLTDRILPRLQAREKCKPQLLNFPPYTRNQIVTILQDRLNQVSRDQVLDNAAVQFCARKVSAVSGDVRKALDVCRRAIEIVESDVKSQTILKPLSECKSPSEPLIPKRVGLIHISQVISEVDGNRMTLSQEGAQDSFPLQQKILVCSLMLLIRQLKIKEVTLGKLYEAYSKVCRKQQVAAVDQSECLSLSGLLEARGILGLKRNKETRLTKVFFKIEEKEIEHALKDKALIGNILATGLP [T37V]
